In patent US20240287489A1, “CHITINOLYTIC ENZYME-BASED PLANT PROTECTION AGENTS” (GLOBACHEM NV, priority 2021, published 2024):

What was measured:
[1] = system: corn (maize), rice, barley; test: Protection of plants against abiotic stress (drought, flooding, salt, frost); type: in vivo, pear, cherry; conditions: foliar and/or seed application
Text: FIGS. 18A-18E. Use of chitinase 1 as plant protection agent against abiotic stresses. Plant length (PL) FIG. 18A: after foliar application on corn in presence of drought or flooding stress; FIG. 18B: after foliar, seed or foliar+seed application on corn in presence of drought stress; FIG. 18C: after foliar application on rice in presence of salt stress; FIG. 18D: after foliar application on corn in presence of salt stress; FIG. 18E: after seed application on barley in presence of drought stress.
FIGS. 19A-19B. Use of chitinase 1 as plant protection agent against abiotic stresses. Yield FIG. 19A: of pears after foliar application in presence of frost stress; FIG. 19B: of cherries after foliar application in presence of frost stress.
Chitinase 1 was tested for protective effects against abiotic stress. Abiotic stresses tested were drought, flooding, salt, or frost stress. Plants tested were: corn (maize), rice, barley, pear and […]. Test conditions were as follows:
• plants are drilled in trays • germination at 25° C./15° C. (day/night) light 16 h, dark 8 h • application 10 days later • 2 days later replanted in pots of 8×8 cm • 3 possible regimes • no water • every day water with flooding system • continuous water
• plants are drilled in trays • germination at 25° C./15° C. […]

[2] = Chitinase mixture design, conversion rate of chitin powder (reducing end assay); type: biochemical; conditions: 2 μM Factor A
Protocol: All five chitinases implemented in the DoE originated from a novel marine Photobacterium strain expressing these enzymes to carry out a conversion of crystalline chitin to monomeric and dimeric polysaccharides. All chitinases were produced recombinantly using E. coli BL21 (DE3) and characterized regarding optimum reaction conditions and product properties in Example 2. As so far only singular enzyme reactions were carried out, the DoE approach was used to 1) determine ideal enzyme combinations to maximize product rates 2) identify possible enzyme combinations to alter product distribution in terms of DP. […] The amount of released reducing sugars from the enzymatic degradation was quantified by the reducing end assay and used as a primary response.
The optimization function in Design Expert was used to model enzyme mixtures to maximize the overall conversion rate of chitin to oligomeric chitin mixtures. Three mixture solutions for maximized chitin (S1-83 Max) oligomer rates were tested and quantitative data was compared to the values predicted by the model. […]
Enzymatic activity of recombinant chitinases was determined by carrying out a reducing end assay [J., H., Svein, E., and H., V. G., Carbohydr Polym, 2004. […] Samples were cooled down to room temperature and absorption was determined at 620 nm. […]

B1: Chitinase 1: chitinolytic enzyme from P. orarium, SEQ ID NO: 1, recombinant with PelB signal peptide and 6×His tag; run 19 = 2 μM alone (protein, listed as Photobacterium orarium)
chain: MAAPGTPQIAWMETDYAIVEVDQAASAYKSLITVKPAAEVPVAWQRYSGETADLWKVKLNGNVVFEQSIAPASSGAGSTTLSVAQGGQYAMTVELCSGTGAAQACTSSAATNIVVADTDGSHLDPLPMNVDANNGNYTTPANTVVGAYFVEWGVYGRKFSVDNIPAQNLTHILYGFIPICGPNESLGEIENGNSLAALNRACQGTPDYEVVIHDPWAAVQMPQPQSGHTHSTPYKGTYGQMMALKQRYPDLKIVPSVGGWTLSDPFYSFTDKAKRDIFVASVKKFLKTWKFFDGVDIDWEFPGGKGANANLGDPVNDGPAYVALMRELRVMLDELEAETGRQYELTSAIGVGYDKIDVVNYADAVQYMDYIFAMTYDFFGGWNNVPGHQTALFCGSHMSADVCNGTGVDENGVPRQGPAYTAAHGIDRLLAQGVPANKLVLGTAMYARGWTGVTEASMTDPTNPMTGTGNGMVPGSWEPGVIDYKDVVTDYINNAAVTKGYDAQAEAPWAYNPSNGNLITYDDRRSVLAKGQYVRNLGLAGLFAWEIDADNGDILNAMQDSLAGGGGNYAPVAKAGADQVVNGAASVTLDGSASSDRDGQIVSYQWTQTSGPALTLTGSDTATATVAVPEVTADTQYAFTLTVTDNAGDTATDSVTVTAKAPGSNTAPVVAVSGPATASAGDTVVLDASQSSDADGDTLTFTWTVPAGVNATVNGATVSFVADSYTVDTPLNFTVAVSDGTDSVTESVTVTVLKDGGSTGCTNAWATGGVYNSGDIVTHSGKSWKAKWWTTGEEPGTTGEWGVWEDLGAANCQIE
modifications: PelB signal peptide; 6xHis tag; Chitinase 1
notes: run 19 = 2 μM alone
**Q.** What does the source list for B1?
**A.** protection from abiotic stress (plant length, fruit yield) [1]: protects the plants from different abiotic stresses; conversion rate (highest of the design runs) [2]: 502 nmol/mL/h
